According to patent publication US20070071744A1 (published 2007):

Target: T1, human glycoprotein VI (GPVI), native, on human platelets (human, UniProt Q9HCN6 21-339)
T1 sequence (looked up): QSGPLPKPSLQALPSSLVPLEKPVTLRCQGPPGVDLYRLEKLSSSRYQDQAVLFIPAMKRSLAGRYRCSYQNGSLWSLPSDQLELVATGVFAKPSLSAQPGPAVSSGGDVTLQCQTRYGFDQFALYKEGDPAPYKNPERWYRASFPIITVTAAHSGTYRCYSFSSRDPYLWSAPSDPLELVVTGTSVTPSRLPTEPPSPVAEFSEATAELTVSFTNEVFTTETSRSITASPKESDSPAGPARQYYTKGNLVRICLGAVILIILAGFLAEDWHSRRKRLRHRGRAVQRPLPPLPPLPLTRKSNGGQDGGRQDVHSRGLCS
Assay: cell-based or functional assay

B1: hGP 5C4 Fab (Fab, V domains shown)
VH: EVKLQESGGGLVQPGRSLKLSCTASGFTFSDYFMSWVRQAPTRGLEWVASISSGGASAYWRDSVKGRFTISRDNAKSALYLQMDSLRSEDTATYFCARGELDFDYWGQGVMVAVSS
VL: ADPNSTLLSASVGDRVTLNCTASQNVYKNLAWYQQKLGEAPRLLLYSANSQTGIPSRFSGSGSGPDFTLTISSLQPEDVASYFCQQYYSGNTFGAGTKLELKR
IC50 of inhibition of collagen-induced (3 µg/ml) human platelet aggregation ex vivo: 0.12 µg/mL
